Reference: paper PMC5061712

Key:
[1] = target: FtsX‐His (full‐length pneumococcal FtsX with a His6 tag) (Streptococcus pneumoniae); test: densitometry of Coomassie‐stained bands of purified nanodiscs; FtsX‐His reconstituted in MSPE3D1/soybean lipid nanodiscs, purified by Ni‐NTA and SEC; relative intensities of MSPE3D1 and FtsX‐His bands, assuming two MSPE3D1 per nanodisc
[2] = target: FtsX‐His (full‐length pneumococcal FtsX with a His6 tag) (Streptococcus pneumoniae); test: cross-linking; FtsX‐His (5–10 μmol/L) with glutaraldehyde (0.5–2.0 mmol/L), 30–45 min, room temperature, 50 mmol/L HEPES pH 8.0, 200 mmol/L NaCl, 5% glycerol, 0.02% DDM, 0.02% C12E8; SDS‐PAGE, Coomassie
[3] = target: FtsX‐His (full‐length pneumococcal FtsX with a His6 tag) (Streptococcus pneumoniae); test: cross-linking; FtsX‐His and FtsE‐His together in detergent micelles with glutaraldehyde; data not shown

FtsX‐His molecules per nanodisc (molecules per nanodisc) [1]: 1.5
stoichiometry N [2]: 2
stoichiometry N [3]: 2
Substance: FtsX‐His (full‐length pneumococcal FtsX with a His6 tag) (natural protein)
